Laboratory results as given in paper PMC5669812 (Protein expression and purification, 2017).
Where two headings read alike, the source gives them in different places.

B1: MTS-labeled GroEL^R268C (natural protein, E. coli)
chain: AAKDVKFGNDARVKMLRGVNVLADAVKVTLGPKGRNVVLDKSFGAPTITKDGVSVAREIELEDKFENMGAQMVKEVASKANDAAGDGTTTATVLAQAIITEGLKAVAAGMNPMDLKRGIDKAVTAAVEELKALSVPASDSKAIAQVGTISANSDETVGKLIAEAMDKVGKEGVITVEDGTGLQDELDVVEGMQFDRGYLSPYFINKPETGAVELESPFILLADKKISNIREMLPVLEAVAKAGKPLLIIAEDVEGEALATLVVNTMCGIVKVAAVKAPGFGDRRKAMLQDIATLTGGTVISEEIGMELEKATLEDLGQAKRVVINKDTTTIIDGVGEEAAIQGRVAQIRQQIEEATSDYDREKLQERVAKLAGGVAVIKVGAATEVEMKEKKARVEDALHATRAAVEEGVVAGGGVALIRVASKLADLRGQNEDQNVGIKVALRAMEAPLRQIVLNAGEEPSVVANTVKGGDGNYGYNAATEEYGNMIDMGILDPTKVTRSALQYAASVAGLMITTEAMVTDLPKNDAADLGAAGGMGGMGGMGGMM
modifications: diamagnetic MTS label on cysteine 268
B2: GroES (natural protein)
chain: MNIRPLHDRVIVKRKEVETKSAGGIVLTGSAAAKSTRGEVLAVGNGRILENGEVKPLDVKVGDIVIFNDGYGVKSEKIDNEEVLIMSESDILAIVEA

Assays:
native gel or EMSA = target: the molecule itself; assay: native gel or EMSA
MTSL-labeled GroEL^A138C [1] = target: T1, MTSL-labeled GroEL^A138C (E. coli, UniProt P0A6F5 2-548, C458A | C519A, MTSL nitroxide spin label on cysteine 138); assay: negative-stain electron microscopy
MTSL-labeled GroEL^A138C [2] = target: T1, MTSL-labeled GroEL^A138C; assay: negative-stain electron microscopy; remark: listed apart in the source

| Binder | binding result (native gel or EMSA) | stoichiometry N (MTSL-labeled GroEL^A138C [1]) | stoichiometry N (MTSL-labeled GroEL^A138C [2]) |
| --- | --- | --- | --- |
| B1 | binds |  |  |
| B2 |  | 2 GroES molecules per GroEL-14mer | 1 GroES molecules per GroEL-14mer |
